Measurements reported in US20240252628A1 (ACCELERON PHARMA, published 2024).

Columns and labels:
activin A = molecular target: T1, activin A (UniProt P08476 311-426); test: SPR (Biacore), anti-Fc capture of receptor, 37 C
T1 construct: The same holds for m2-m11
T1 sequence (looked up): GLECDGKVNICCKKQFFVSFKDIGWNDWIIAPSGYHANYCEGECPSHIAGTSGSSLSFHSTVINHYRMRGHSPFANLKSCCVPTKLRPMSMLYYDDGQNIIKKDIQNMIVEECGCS
Method: (§1) A Biacore™-based binding assay was used to compare the ligand binding kinetics of an ActRIIB-Fc:ActRIIB(L79E)-Fc heterodimer with those of unmodified ActRIIB-Fc homodimer. Fusion proteins were captured onto the system using an anti-Fc antibody. Ligands were then injected and allowed to flow over the captured receptor protein at 37° C. Results are summarized in the table below, in which ligand off-rates (kd) most indicative of effective ligand traps are denoted in bold.

BMP10 = molecular target: T2, BMP10 (UniProt O95393 317-424); test: SPR (Biacore), anti-Fc capture of receptor, 37 C
T2 sequence (looked up): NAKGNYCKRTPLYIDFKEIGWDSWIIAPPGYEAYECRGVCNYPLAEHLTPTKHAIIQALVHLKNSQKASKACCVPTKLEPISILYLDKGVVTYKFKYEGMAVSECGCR
Method: as §1

fold faster off-rate than ActRIIB-Fc homodimer (activin A): ~10 fold
fold faster off-rate than ActRIIB-Fc homodimer (BMP10): ~10 fold
B1: ActRIIB-Fc:ActRIIB(L79E)-Fc heterodimer (Fc fusion)
chain 1: GRGEAETRECIYYNANWELERTNQSGLERCEGEQDKRLHCYASWRNSSGTIELVKKGCWEDDFNCYDRQECVATEENPQVYFCCCEGNFCNERFTHLPEAGGPEVTYEPPPTAPTGGGTHTCPPCPAPELLGGPSVFLFPPKPKDTLMISRTPEVTCVVVDVSHEDPEVKFNWYVDGVEVHNAKTKPREEQYNSTYRVVSVLTVLHQDWLNGKEYKCKVSNKALPAPIEKTISKAKGQPREPQVYTLPPSREEMTKNQVSLTCLVKGFYPSDIAVEWESNGQPENNYDTTPPVLDSDGSFFLYSDLTVDKSRWQQGNVFSCSVMHEALHNHYTQKSLSLSPG
chain 2: GRGEAETRECIYYNANWELERTNQSGLERCEGEQDKRLHCYASWRNSSGTIELVKKGCWLDDFNCYDRQECVATEENPQVYFCCCEGNFCNERFTHLPEAGGPEVTYEPPPTAPTGGGTHTCPPCPAPELLGGPSVFLFPPKPKDTLMISRTPEVTCVVVDVSHEDPEVKFNWYVDGVEVHNAKTKPREEQYNSTYRVVSVLTVLHQDWLNGKEYKCKVSNKALPAPIEKTISKAKGQPREPQVYTLPPSRKEMTKNQVSLTCLVKGFYPSDIAVEWESNGQPENNYKTTPPVLKSDGSFFLYSKLTVDKSRWQQGNVFSCSVMHEALHNHYTQKSLSLSPGK
notes: the receptor domains are the same in both; also called ActRIIB-Fc:ActRIIB(L79E)-Fc heteromer
